Laboratory results as given in patent US20150080549A1 (Chugai, published 2015).
Starred links: 1 amine or outer side, 2 acyl side, 3 side chain; linkers in the order of their positions; H or OH if unused. Positions of bridges follow the written chain, without caps; N, C: chain ends. Non-standard residues stand in square brackets, D forms with d. Hyp(Et) = (2S,4R)-4-ethoxypyrrolidine-2-carboxylic acid, CCO[C@@H]1C[C@@H](C(=O)[*:2])N([*:1])C1; γEtAbu = 4-(ethylamino)butanoic acid, CCN(CCCC(=O)[*:2])[*:1]; Phe(4-CF3) = N[C@@H](Cc1ccc(C(F)(F)F)cc1)C(=O)O; NMeAla(4-thiazolyl) = CN[C@@H](Cc1cscn1)C(=O)O; NMePhe(3-Cl) = CN[C@@H](Cc1cccc(Cl)c1)C(=O)O; Met(O2) = CS(=O)(=O)CC[C@H](N)C(=O)O; NMeF = CN[C@@H](Cc1ccccc1)C(=O)O; FlPu(urea) = not defined here; Phg = N[C@H](C(=O)O)c1ccccc1; NMeS = CN[C@@H](CO)C(=O)O; βAla = NCCC(=O)O; Sar = CNCC(=O)O

Biological target: T1, biotinylated Recombinant Human Tumor Necrosis Factor-alpha (Prospec, Catalog Number #CYT-223) (human, UniProt P01375 77-233, biotinylated with EZ-Link NHS-PEG4-Biotin (Thermo scientific 21329); sites not stated)
T1 construct: Bought protein; also called TNFα; tumor necrosis factor-α
Test: ECL immunoassay (MSD): biotinylated target on streptavidin plate, translated FlPu(urea)-labelled cyclic peptide (Translation Solution T), anti-fluorescein and SULFO-TAG anti-mouse antibody; no-template control 232
Protocol: (§1) 0.5 μl of a 200 mM EDTA solution (pH 8.0, Nacalai, 14362-24) and 0.5 μl of a 100 mM TCEP solution (pH 6.6) were added to 5 μL of the translation mixture, and the mixture was incubated at 37° C. for 120 minutes to cause cyclization reaction. 11 μL of desulfurization buffer (15 mM cysteine, 36 mM TCEP) was added to the cyclization product, and the mixture was incubated at 42° C. for 1 minutes, after which 4 μL of 1 M VA-044 (Wako, CAS No. 27776-21-2) was added and the mixture was allowed to stand at 42° C. for 1 hour.
(§2) Immunoassay was carried out using the above peptide solution for ECL assay. 500 nM biotinylated target protein was added at 10 μL per well to MSD Streptavidin MULTI-ARRAY 384-well plate (Meso Scale Discovery, L25SB-1), and reaction was conducted at room temperature for 1 hour with shaking at 500 rpm to immobilize the target protein. 2% skim milk PBS was added at 50 μL per well, and blocking was carried out by allowing to stand at room temperature for 2 hours. The reaction solution was removed and the plate was washed with PBS containing 0.05% Tween 20 (PBST) three times, after which 10 μL of the peptide solution for ECL assay was added and the plate was shaken at room temperature for 50 minutes at 500 rpm. The reaction solution was removed and the plate was washed with PBST three times, after which 10 μL of IgG Fraction Monoclonal Mouse Anti-Fluorescein (Jackson ImmunoResearch, 200-002-037) diluted to 0.5 μg/mL with 2% skim milk PBS was added, and reaction was conducted at room temperature for 50 minutes with shaking at 500 rpm. The reaction solution was removed and the plate was washed with PBST three times, after which 10 μL of SULFO-TAG Anti-Mouse Antibody (Meso Scale Discovery, R32AC-5) diluted to 1 μg/mL with 2% skim milk PBS was added, and reaction was conducted at room temperature for 50 minutes with shaking at 500 rpm. The reaction solution was removed and the plate was washed with PBST three times, after which 35 μl, of 2× Read Buffer T (Meso Scale Discovery, R92TC-3) was added and measurement was carried out using SECTOR Imager 2400 (Meso Scale Discovery).

T1 sequence (P01375 77-233 limits assumed): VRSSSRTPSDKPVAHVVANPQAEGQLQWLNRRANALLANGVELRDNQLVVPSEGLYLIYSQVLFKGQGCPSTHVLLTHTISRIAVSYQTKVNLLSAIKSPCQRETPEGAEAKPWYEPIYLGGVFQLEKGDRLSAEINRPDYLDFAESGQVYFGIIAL

Binder | ECL signal
A[Phe(4-CF3)]WWV[Sar]GP[Hyp(Et)]SD[NMeS][Met(O2)]SGSGSGS-{FlPu(urea)} (lactam N-11; reading uncertain, Translated in ECL Translation Solution T, cyclized and desulfurized; not isolated; also called translation product of template DNA DME-8) [SEQ ID NO: PE-8 (TNFα binder) peptide] | 73300
ATIP[dY]WW[Phe(4-CF3)][Met(O2)]VDW[NMeAla(4-thiazolyl)]SGSGSGS-{FlPu(urea)} (lactam N-11; reading uncertain, Translated in ECL Translation Solution T, cyclized and desulfurized; not isolated; also called translation product of template DNA DME-10) [SEQ ID NO: PE-10 (TNFα binder) peptide] | 50700
A[NMeAla(4-thiazolyl)]IPVWW[Phe(4-CF3)][Met(O2)]VDW[NMeAla(4-thiazolyl)]SGSGSGS-{FlPu(urea)} (lactam N-11; reading uncertain, Translated in ECL Translation Solution T, cyclized and desulfurized; not isolated; also called translation product of template DNA DME-9) [SEQ ID NO: PE-9 (TNFα binder) peptide] | 264000
ATWI[NMeF][Phg]W[βAla][Phe(4-CF3)][Phg]DVTSGSGSGS-{FlPu(urea)} (lactam N-11; reading uncertain, Translated in ECL Translation Solution T, cyclized and desulfurized; not isolated; also called translation product of template DNA DME-11) [SEQ ID NO: PE-11 (TNFα binder) peptide] | 149000

Biological target: T1, biotinylated Recombinant Human Tumor …
Test: SPR, Biacore T200, 20 C; biotinylated TNFα captured on sensor chip CAP, peptide as analyte; KD=koff/kon from curve fitting
Protocol: An SPR experiment for analyzing the interaction between synthetic peptides and TNFα was conducted using Biacore T200 (GE healthcare) at 20° C. Synthetic peptides were added to the immobilized protein, and the interaction was evaluated.
Surfactant P-20 and DMSO were added to the above phosphate buffered saline at final concentrations of 0.01 vol % and 5 vol %, respectively, and the resulting mixture was used as running buffer. CAP reagent was immobilized on a Biacore sensor chip, Series S sensor chip CAP (GE healthcare), according to the instructions, and biotinylated TNFα was immobilized. Each synthetic peptide was added at multiple concentrations, and sensorgrams for binding to the immobilized TNFα were provided to measure dissociation constants (KD).
The obtained sensorgrams were analyzed using T200 evaluation software (GE healthcare) or Scrubber2 (Biologic software). First, solvent correction for DMSO and double reference (correction by subtracting sensorgrams of flow cells where TNFα was not immobilized and sensorgrams in the case where the buffer was added) were carried out. Second, binding rate constants (kₒₙ) and dissociation rate constants (koff) were calculated from curve fitting to the corrected sensorgrams, and KDs were determined by the relational expression KD=koff/kₒₙ.

Binder | Kd
[γEtAbu]T[Phg]I[NMeAla(4-thiazolyl)]WW[Phe(4-CF3)][dY][NMePhe(3-Cl)]DP[Sar]S-OH (lactam N-11; SMILES CC[C@H](C)[C@@H]1NC(=O)[C@H](c2ccccc2)NC(=O)[C@H]([C@@H](C)O)NC(=O)CCCN(CC)C(=O)C[C@@H](C(=O)N2CCC[C@H]2C(=O)N(C)CC(=O)N[C@@H](CO)C(=O)O)NC(=O)[C@H](Cc2cccc(Cl)c2)N(C)C(=O)[C@@H](Cc2ccc(O)cc2)NC(=O)[C@H](Cc2ccc(C(F)(F)F)cc2)NC(=O)[C@H](Cc2c[nH]c3ccccc23)NC(=O)[C@H](Cc2c[nH]c3ccccc23)NC(=O)[C@H](Cc2cscn2)N(C)C1=O, Chemically synthesized, HPLC purified) [Compound SP842] | 160 nM
A[NMeAla(4-thiazolyl)]IPVWW[Phe(4-CF3)][Met(O2)]VDW[NMeAla(4-thiazolyl)]S-OH (lactam N-11; SMILES CC[C@H](C)[C@@H]1NC(=O)[C@H](Cc2cscn2)N(C)C(=O)[C@H](C)NC(=O)C[C@@H](C(=O)N[C@@H](Cc2c[nH]c3ccccc23)C(=O)N(C)[C@@H](Cc2cscn2)C(=O)N[C@@H](CO)C(=O)O)NC(=O)[C@H](C(C)C)NC(=O)[C@H](CCS(C)(=O)=O)NC(=O)[C@H](Cc2ccc(C(F)(F)F)cc2)NC(=O)[C@H](Cc2c[nH]c3ccccc23)NC(=O)[C@H](Cc2c[nH]c3ccccc23)NC(=O)[C@H](C(C)C)NC(=O)[C@@H]2CCCN2C1=O, Chemically synthesized, HPLC purified) [Compound SP845] | 940 nM
ATIP[dY]WW[Phe(4-CF3)][Met(O2)]VDW[NMeAla(4-thiazolyl)]S-OH (lactam N-11; SMILES CC[C@H](C)[C@@H]1NC(=O)[C@H]([C@@H](C)O)NC(=O)[C@H](C)NC(=O)C[C@@H](C(=O)N[C@@H](Cc2c[nH]c3ccccc23)C(=O)N(C)[C@@H](Cc2cscn2)C(=O)N[C@@H](CO)C(=O)O)NC(=O)[C@H](C(C)C)NC(=O)[C@H](CCS(C)(=O)=O)NC(=O)[C@H](Cc2ccc(C(F)(F)F)cc2)NC(=O)[C@H](Cc2c[nH]c3ccccc23)NC(=O)[C@H](Cc2c[nH]c3ccccc23)NC(=O)[C@@H](Cc2ccc(O)cc2)NC(=O)[C@@H]2CCCN2C1=O, Chemically synthesized, HPLC purified) [Compound SP846] | 2000 nM
A[Phe(4-CF3)]WWV[Sar]GP[Hyp(Et)]SD[NMeS][Met(O2)]S-OH (lactam N-11; SMILES CCO[C@@H]1C[C@H]2C(=O)N[C@@H](CO)C(=O)N[C@H](C(=O)N(C)[C@@H](CO)C(=O)N[C@@H](CCS(C)(=O)=O)C(=O)N[C@@H](CO)C(=O)O)CC(=O)N[C@@H](C)C(=O)N[C@@H](Cc3ccc(C(F)(F)F)cc3)C(=O)N[C@@H](Cc3c[nH]c4ccccc34)C(=O)N[C@@H](Cc3c[nH]c4ccccc34)C(=O)N[C@@H](C(C)C)C(=O)N(C)CC(=O)NCC(=O)N3CCC[C@H]3C(=O)N2C1, Chemically synthesized, HPLC purified) [Compound SP844] | 20 nM
ATWI[NMeF][Phg]W[βAla][Phe(4-CF3)][Phg]DVTS-OH (lactam N-11; SMILES CC[C@H](C)[C@@H]1NC(=O)[C@H](Cc2c[nH]c3ccccc23)NC(=O)[C@H]([C@@H](C)O)NC(=O)[C@H](C)NC(=O)C[C@@H](C(=O)N[C@H](C(=O)N[C@H](C(=O)N[C@@H](CO)C(=O)O)[C@@H](C)O)C(C)C)NC(=O)[C@H](c2ccccc2)NC(=O)[C@H](Cc2ccc(C(F)(F)F)cc2)NC(=O)CCNC(=O)[C@H](Cc2c[nH]c3ccccc23)NC(=O)[C@H](c2ccccc2)NC(=O)[C@H](Cc2ccccc2)N(C)C1=O, Chemically synthesized, HPLC purified) [Compound SP848] | 250 nM

Biological target: T2, biotinylated Interleukin-6 receptor (IL-6R) (human, UniProt P08887 20-344, limits assumed, biotinylated (method of BMC biotechnology, 2008, 8, 41 and Protein Science, 1999, 8, 921-929); site not stated)
T2 construct: also called human IL-6 receptor; hIL-6R
T2 sequence (looked up): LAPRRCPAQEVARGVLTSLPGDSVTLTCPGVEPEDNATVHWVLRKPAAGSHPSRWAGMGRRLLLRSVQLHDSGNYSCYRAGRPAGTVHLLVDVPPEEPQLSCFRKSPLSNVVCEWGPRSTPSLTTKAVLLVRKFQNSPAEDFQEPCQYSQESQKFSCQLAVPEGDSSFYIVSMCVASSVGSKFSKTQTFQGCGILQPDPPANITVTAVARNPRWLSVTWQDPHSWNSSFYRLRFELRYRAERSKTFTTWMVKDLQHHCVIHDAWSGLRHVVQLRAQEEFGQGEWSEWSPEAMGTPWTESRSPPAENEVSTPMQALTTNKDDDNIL
Test: ECL immunoassay (MSD): biotinylated target on streptavidin plate, translated FlPu(urea)-labelled cyclic peptide (Translation Solution T), anti-fluorescein and SULFO-TAG anti-mouse antibody; no-template control 177
Protocol: as §1, §2

Binder | ECL signal
APIIW[NMePhe(3-Cl)][Met(O2)]P[NMePhe(3-Cl)][dY]DV[dY]SGSGSGS-{FlPu(urea)} (lactam N-11; reading uncertain, Translated in ECL Translation Solution T, cyclized and desulfurized; not isolated; also called translation product of template DNA DME-3) [SEQ ID NO: PE-3 (IL-6R binder) peptide] | 70000
APII[NMeF][Met(O2)]P[NMePhe(3-Cl)][dY]VDSTSGSGSGS-{FlPu(urea)} (lactam N-11; reading uncertain, Translated in ECL Translation Solution T, cyclized and desulfurized; not isolated; also called translation product of template DNA DME-2) [SEQ ID NO: PE-2 (IL-6R binder) peptide] | 307000
APVI[NMeF][Met(O2)]P[NMePhe(3-Cl)]V[Met(O2)]DP[Sar]SGSGSGS-{FlPu(urea)} (lactam N-11; reading uncertain, Translated in ECL Translation Solution T, cyclized and desulfurized; not isolated; also called translation product of template DNA DME-13) [SEQ ID NO: PE-13 (IL-6R binder) peptide] | 537000
AII[NMeAla(4-thiazolyl)]WP[NMePhe(3-Cl)][Met(O2)][dY][βAla]DP[NMePhe(3-Cl)]SGSGSGS-{FlPu(urea)} (lactam N-11; reading uncertain, Translated in ECL Translation Solution T, cyclized and desulfurized; not isolated; also called translation product of template DNA DME-14) [SEQ ID NO: PE-14 (IL-6R binder) peptide] | 45600
